Source: the DeepSol protein solubility set

Assay: soluble on expression in E. coli; label from the status in PepcDB or PDB records

Soluble on expression in E. coli, not soluble:
MLNTRLELNKRIDNNVQLKYTEQKIFGNSKEIIGCEVLLDFEYAKKNQVAWKYLTMMHNGASLLSLIVYVNESILRYVKSNINKVFINVERISLCNSRHVGLITRLNEKMSEHNISLIVEITERGSDIPFVEIKNGLKSLQCSHVKLAMDDYDYKKTDFRSDEIFDYDYIKVDFPKTKAELDSFNNFVFLTSMFTCLIVERIENENDFFSVKNNRIWGYQGFAFCQKESFEGWSDNTSDNNVF
MANKLTVLASVVAASSAMLSLSASAAESTLDKVLSQGFITCGVSTGLPGFSNPNAKGEWEGIDVEYCQAMAAAVLGDKTKVKFVPLTAKERFTALQSGEIDVLSRNTTWTLQRDSALGLNFVGVNYYDGQGFMVKKDLGVKSAKELNGASVCVQSGTTTELNLADYFRNSGMTYKPVVFDTAAQTSKGFDAGRCDVLTTDQSGLYALRLNLEKPDSAVVLPEIISKEPLGPVVRQDDDKWFNVAKWVLYAMVNAEEYGITSKNVDEMMKSDNPEVKRILGLDGPKGTGLGIRDDWSYQIVKQVGNYGESFDRTVGSGSPLKIDRGVNALWNAGGFMYAPPIR
MGSDKIHHHHHHMTEQITPQAFLAGRLLLESEVPSEFLTNKDVITEPSIITENGRYHCRRCCNEHRELFATAPCAWCGNRHCIYCRNCLMLGRVTACRKLVRWKGEPYAFPSHSNVLQWKGTLSHGQRHASLQAVQYWKQKEDHIIWAVCGSGKTEIVFDAVAQSLANGERILLATPRVDVVKELYPRFKQAFPSITITALYGDSPSVFHPAQLVIATTHQTFRFKKAFDFVIVDEVDAFPFSCDQSLQLSVNEARRPLAPILYLSATPSRSLLEQNKRITKVSTRYHGHPLPLPSFVWIGNWRKTVMRRKLPSKLVTWLEKHHRKPVFLFVPSIPVLEQVSAALKQLGYIHDAVHAEDPHRHEKVTRFRDGVTKLLVTTTILERGVTVPRVQVAVLGAEHSVFSEAALVQISGRVGRSHRHPTGDIAFFHYGVSKAMKRCRQQLQQMNREGF
MNQLNGQQLNDIILVLQNFTHSTLKKDLISLNAFKKAELTCGILRIELSMPFVWQTGFEALQAEVEQQLKQITGASGVKWVLNYQIATLKRANNHPAVNGVKNIIAVTSGKGGVGKSTTSINLALALQAQGAKVGILDADIYGPSIPHMLGAQDQRPTSPDNRHITPIEAYGIQSNSIGYLMAEDNATIWRGPMASSALSQLLNETWWTDLDYLVIDMPPGTGDIQLTLSQQIPVTGAVVVTTPQDIALLDAIKGIAMFQKVAVPVLGVIENMSVHICQNCGHQEAIFGTGGASKVAEKYNTQLLGQLPLHIRLRQDLDAGTPTVVADPTHEISQAYLALAAKVAAELYWQGTVIPSEIMIREVK
MSLNSQEMVLGNAWLVLADRVIEHGWVAIADGVIAEVGEGDAPNGAKDMHGDLVMPGLVELHTDHLEAHYTPRPKVQWNPVAAVVSYDGQLATCGITTVLDSLRVWREEGAEEVDGQAIVLAGAISTARDAQLLRADHFLHLRCEIPMPNVVAEAKELIDRPDIRLMSLMDHTPGQRQFRDEEKLRDYYRGKGAGMTDAELDVMFARRVYCKENYADANMRAIVELAHRYEIPLASHDDTTPENVADAIRDRVAVAEFPTTLEAARELHQAGIDILMGAPNVVRGGSHSGNIAAIDLAHEGLLDILSSDYIPSSLLIAALQLPMRAPGIDLAAAIRTVTKAPAEAVGLNDRGEISKGKRADLIRVHVAHDVPAVRSVWREGQRVAEGHHHHHH
MHYCPGCSHGVVHKLIAEVIEEMGLTEETIGIAPVGCSVFAYRYIDIDWQEAAHGRAPALATAVKRLNPSKLVFTYQGDGDLAAIGTAETIHAANRGENIAIIFINNGIYGMTGGQMAPTTLEGMVTATCPQGRNVELNGYPLKIADMLALLDGTCLVTRQTVHNAAAVRKTKKMIQKAFENSMNRKGTSIVEVVSTCNTGWKMSPAASNDWMMENMAKQYPLGDLKNID
SRRLEDLHPDLQPLAHSFLRRCTDAGLDVLIYCTYRSGAEQDQLYAQGRKGSPGPIVTNARAGQSAHNFTIQNRPAARAFDAVPMVGGKPQWDQKHPHWQIMGRIGTELG
MPMTGRCREPNCHAVVVRPLHYCTKHADKEAAYQASRERWTNRTSNSKRYKDYDRMRSKDPFKAEQHKFYQGKQWRSIREIALRRDNYLCQYCLNHKRVRTGNIGDHIVPYEVEPENRTNLANIAIACSKCHTAKTKWEQLYYGTGMGNKLKNAIPIRNVKDLPDFQKNIRLEHHHHHH
MAHHHHHHMNKSTVAGELRNIFSQGTNAYTVELYNAFYRDGTLSLVMEYMDWGNLEELIAICPTIPEPACAYIASQILHALQILHTKANHPTETDKKGRRQIHRDIKPANVMLSKNGVVKLTDFGIAASAETIGVNSFVGTATYMSPERIQGRNYSTPSDIWSVGVLTAQLLLGRFPFSAAEGGFMALLRQVTECCSLSLVDQCACSQKAEDFINHCICRNPDDRSTAIELLQHEWIVQNASNGKDVLTGLLGTVGEPAASSESDNS
MQNIFDPLIIRGKSLIPIVQGGMGVGVSASGLSSAVARENGIGTIASVDLRHLHEDLLAESQINPSEEKYTSLNCTALDREIQKAKSASEGKGLIAVNVMKAVKDHAAYVRQACESGADAVVMGAGLPLDLPEMTEGYHKDVALLPILSESRGINIVLKRWMKKGILPDAIVVEHPAHAAGHLGASTVEGVNDAKFDFKRVIEETFEVFKNLGLEGEKIPLILAGGMANFEKVKTALKNWGASAVQIGTAFAVTEEGDAHLNFKKTLASAETEKVVEFMSVAGLPARGIRTKFLDSYIRREGKLQANAKADPRRCTQGLNCLTSCGLRDGLSKAGQFCIDIQLAAAFRGEVDKGLFFRGKDQLPFGNAIRTVRETIQYLLTGSEPVATLGR
MGSDKIHHHHHHMSIKLDHRLLYLRVIEKIKSDIDDGVYKEGEKLPSEFELSKQLGVSRATLREALRILEDENIVIRKHGVGTFINARPPFTSGIEELYSVTEMIARAGMIPTSEVLSSEMVQPTERDRERFQLGPDELVYRIERIRLAGDVPVVYCVDKIPSHYIKNEEQFTSSTSLFDALEKELGRRVTHAVTHIEPRIDPKIAEQLHTDQPLLVLRQTHYDELDRSVLYSANYFRADKFDFHVIRKRV
MEKLTIQEEEVMLHIWSMGECFVKDIVAKFPEPKPPYTTVASIVNNLKRKGYVTAKRFGNTYQYTPVVKQSEYKRTFVSGVVRNYFADSYKEMVSFFAKEQKISAADLKDIINLIEKEEDK

Soluble on expression in E. coli, soluble:
MQAVNTTSGGAVGVDRKQYMFSMLSSQEVDQMYAQSYQKTLGEAKSAGVLDTSSADARRVKAIAQRLIPQTAAFRPDATGWNWEVNVVKSDELNANCGPGGKIIFYTGLIDKLKLTDDEIAAVMGHEIAHALREHGREAMSKAYGVQVASQIGALAGLGQESLQLANTGVDYLMTLPNSRANENEADLIGLELAARAGYNPEAAITLWQKMGRASGGASQPEFTSTHPSDSSRMANLQAAIPKVMPLYQQARRGKLEHHHHHH
MSTETDSILAAFEKFNTIIIHRHINPDPDAIGSQTGLALLLRAAYPAKTIYTAGPAAPDLAWIGPQQQVSAEAYTGALVVVIDTSNRERIAGDHFDQGAMLIKIDHHLDEDQLGTINWVDTHASSASEMVWDLVRHSPQLQLTKAAATALYAGIIGDTGRFLYDLTTARTHQAAADLLATGIDAAAIGRQEDQFPENVGRLIGWALENVKITDTGAGSLLITKAVLAQFGLAYGEEQRAVGNIGKLASIDRWVVFTERTDGSYRVELRGKTKEINTLAVQHGGGGHPLASGAVADNAAELHAIEEELASLLEHHHHHH
MGSSHHHHHHSSGLVPRGSHMVASETLKTKKMEVQIKKNFPSVLQYTMTDGKVMYGQSKDVRTVEINGTNIELGDDDVTFKKVSDTEATYTLKVKDEAKKIDAVITVQITVKANQLHLNVTKIKNNLSEGIPEGNGVEENAIQTLSFPNQSLVSVRSSQENAQFTGARMSSNTQKPGDTNFAVTEDTNVTDSDYTYGFISGAGLSAGLWSNSEHDGTYVAAPVRGGSQNTRVYATTQQTGDATSLGLASAPWYYHRTVTDSKGKKYTVAETALPQMAVAIAGDENEDGAVNWQDGAIAYRDIMNNPYKSEEVPELVAWRIAMNFGSQAQNPFLTTLDNVKKVALNTDGLGQSVLLKGYGNEGHDSGHPDYGDIGQRLGGADDMNTMMEEGSKYGARFGVHVNASEMYPEAKAFSEDMVRRNSAGGLSYGWNWLDQGVGIDGIYDLASGSRVSRFADLSKEVGDNMDFIYLDVWGNLTSSGSEDSWETRKMSKMINDNGWRMTTEWGSGNEYDSTFQHWAADLTYGGYTSKGENSEVMRFLRNHQKDSWVGDYPQYGGAANAPLLGGYNMKDFEGWQGRNDYAAYIKNLYTHDVSTKFIQHFKVTRWVNNPLLTADNGNAAAVSDPNTNNGNEQITLKDSNGNVVVVSRGSNDTSSAAYRQRTITFNGVKVASGVVSAGDGSATGDESYLLPWMWDSFTGKLVKDSEQKLYHWNTKGGTTTWTLPDSWKNLSSVKVYQLTDQGKTNEQTVAVSGGKVTLTADAETPYVVYKGEAKQIQVNWSEGMHVVDAGFNGGSNTLTDNWTVSGSGKAEVEGDNNAMLRLTGKVDVSQRLTDLKAGQKYALYVGVDNRSTGDASVTVTSGGKVLATNSTGKSIAKNYIKAYGHNTNSNTENGSSYFQNMYVFFTAPENGDATVTLSHKSTDGAHTYFDDVRIVENQYSGITYEKDGTLKSLTNGFENNAQGIWPFVVSGSEGVEDNRIHLSELHAPFTRAGWDVKKMDDVLDGTWSVKVNGLTQKGTLVYQTIPQNVKFEAGAKYKVSFDYQSGSDDIYAIAVGQGEYSAGSVKLTNLKKALGETGKAEFELTGGVNGDSWFGIYSTATAPDLQGSTGNAQDFGGYKDFVLDNLKIERIESQTRTKAEAQDKVKEIRGKYDSKRAELSDAAWQQYQDTLVKARVLINKNGATAEDFTKAYDILVALDEYMKTAPGNESSDKYDVAADGSDELGGYTVATGSEEPTAGLPSEGPADLAQDGNDSTHWHTSWSENAVGNGTAWYQFNLNEPTTINGLRYLPRSGGMNANGKIKGYKITLTLADGTTKDVVTDAEFSTTTMWQKASFDAVENVTAVRLTVLSSAGQSDSQANKFASAAELRLTTDRE
MISVCIATYNGEKYLAEQLDSILLQVSEEDELIISDDGSTDHTLEILRTYAANYPQIQLLQGPGQGVIANFAFALTHTKGEVIFLADQDDVWLPNKVTTVTEYFETHPDIQVVISDLKIVDADLQVTNPSYFKFRKVKPGFWRNAIKSGYIGAGMAFRQEMKNVILPIPPEVPMHDMWIGLLAARKKQTGLIKEPLVLYRRHGANVSPIITKTSFQQKLNWRVNLLKALHQRLKEQRLEHHHHHH
